The results in this text go back to article PMC5591277.

pKd: −log10 of the molar value.

For orientation: pKd means −log10 of the Kd, conventionally taken in molar units.

The target in series [1] is T1, Lsm2-8 complex (Saccharomyces cerevisiae) (UniProt P38203+P57743+P40070+P40089+Q06406+P53905+P47093).
T1 sequence 1: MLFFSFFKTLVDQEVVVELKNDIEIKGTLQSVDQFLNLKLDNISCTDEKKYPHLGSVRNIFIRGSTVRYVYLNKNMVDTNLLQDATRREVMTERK
T1 sequence 2: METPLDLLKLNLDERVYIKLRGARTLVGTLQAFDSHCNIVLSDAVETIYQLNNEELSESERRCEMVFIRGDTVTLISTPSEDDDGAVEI
T1 sequence 3: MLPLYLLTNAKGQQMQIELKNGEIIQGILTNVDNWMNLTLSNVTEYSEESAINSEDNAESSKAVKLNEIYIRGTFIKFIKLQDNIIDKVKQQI
T1 sequence 4: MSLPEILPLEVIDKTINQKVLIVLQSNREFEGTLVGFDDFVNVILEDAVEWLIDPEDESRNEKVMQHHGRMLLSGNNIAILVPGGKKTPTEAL
T1 sequence 5: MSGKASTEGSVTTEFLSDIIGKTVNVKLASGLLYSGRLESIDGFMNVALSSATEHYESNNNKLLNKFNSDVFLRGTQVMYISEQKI
T1 sequence 6: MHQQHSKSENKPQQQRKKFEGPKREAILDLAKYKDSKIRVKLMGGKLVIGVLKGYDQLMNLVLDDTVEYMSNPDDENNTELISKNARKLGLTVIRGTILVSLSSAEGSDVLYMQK
T1 sequence 7: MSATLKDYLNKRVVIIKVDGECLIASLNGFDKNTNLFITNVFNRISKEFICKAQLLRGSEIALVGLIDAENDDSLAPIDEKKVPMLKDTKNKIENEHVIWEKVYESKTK
In words: EMSA. To be noted: Bmax 100%, EMSA: 5 nM Cy3-U6, 100 mM KCl, 20% sucrose, 20 mM bis-tris/10 mM HCl, 1 mM EDTA, 1 mM TCEP, 0.01% Triton X-100, 0.1 mg/mL tRNA, 0.01 mg/mL heparin.

Series [2] addresses T2, Lhp1 (yeast La protein) (Saccharomyces cerevisiae) (UniProt P33399).
T2 sequence: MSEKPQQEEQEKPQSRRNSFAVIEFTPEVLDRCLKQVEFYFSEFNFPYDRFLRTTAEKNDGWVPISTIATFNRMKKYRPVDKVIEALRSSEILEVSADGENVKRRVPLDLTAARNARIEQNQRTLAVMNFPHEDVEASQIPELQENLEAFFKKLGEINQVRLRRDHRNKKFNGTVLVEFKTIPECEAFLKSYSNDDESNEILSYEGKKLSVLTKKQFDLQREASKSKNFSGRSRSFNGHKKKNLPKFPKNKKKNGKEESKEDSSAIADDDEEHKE
In words: EMSA. To be noted: Bmax 75%, 2',3'-cis-diol end, EMSA: 5 nM Cy3-U6, 100 mM KCl, 20% sucrose, 20 mM bis-tris/10 mM HCl, 1 mM EDTA, 1 mM TCEP, 0.01% Triton X-100, 0.1 mg/mL tRNA, 0.01 mg/mL heparin. On the technique in general: Mobility shift assays separate free from complexed probe on a gel.

In the case of U6 1-112 3'OH, the pKd in series [1] (2',3'-cis-diol end) is 6.68; in series [2] it was 7.74.
For U6 1-112+1U 3'OH, the figures for the pKd in series [1] (2',3'-cis-diol end) and in series [2] were 7.52 and 7.92, respectively.
As for U6 1-112+1U>p, the pKd in series [1] (2',3'-cyclic phosphate) is 7.15.
